Experimental data reported in paper PMC4933286.

How the values were obtained:
[1] = target: BTV-1 VP5 mutant 2 (R10L/K13L/K14L) (bluetongue virus serotype 1 (BTV-1)); experiment: native gel or EMSA
[2] = target: BTV-1 VP5 mutant 3 (K3L/R6L/R10L/K13L/K14L) (bluetongue virus serotype 1 (BTV-1)); experiment: native gel or EMSA

Row | Substance | stoichiometry N [1] | stoichiometry N [2]
1 | BTV-1 VP5 mutant 2 (R10L/K13L/K14L) (natural protein) | 3 | 
2 | BTV-1 VP5 mutant 3 (K3L/R6L/R10L/K13L/K14L) (natural protein) |  | 3
